Experimental data published in patent US20090148447A1 (TRUBION PHARMACEUTICALS, published 2009).
Each block holds one molecule with its values, some of them ahead of it.

Legend:
[1] = biological target: low-affinity CD16 (CD16lo); test: flow cytometry, CD16lo bound to sample on Ramos cells, goat anti-mouse-PE; sample 8 ug/ml
[2] = biological target: low-affinity CD16 (CD16lo); test: flow cytometry, CD16lo bound to sample on Ramos cells, goat anti-mouse-PE; sample 24 ug/ml
[3] = biological target: low-affinity CD16 (CD16lo); test: flow cytometry, CD16lo bound to sample on Ramos cells, goat anti-mouse-PE; sample 0.1 ug/ml
[4] = biological target: low-affinity CD16 (CD16lo); test: flow cytometry, CD16lo bound to sample on Ramos cells, goat anti-mouse-PE; sample 0.3 ug/ml
[5] = biological target: low-affinity CD16 (CD16lo); test: flow cytometry, CD16lo bound to sample on Ramos cells, goat anti-mouse-PE; sample 0.89 ug/ml
[6] = biological target: low-affinity CD16 (CD16lo); test: flow cytometry, CD16lo bound to sample on Ramos cells, goat anti-mouse-PE; sample 2.67 ug/ml
[7] = biological target: low-affinity CD16 (CD16lo); test: flow cytometry, CD16lo bound to sample on Ramos cells, goat anti-mouse-PE; sample 0.011 ug/ml
[8] = biological target: low-affinity CD16 (CD16lo); test: flow cytometry, CD16lo bound to sample on Ramos cells, goat anti-mouse-PE; sample 0.033 ug/ml
CD20 = biological target: T1, CD20 (UniProt P11836 1-297, limits assumed); test: flow cytometry on Wil2-S B-cells, PE goat anti-human IgG
T1 construct: whole, on cells; also called CD20 on Wil2-S cells
T1 sequence (looked up): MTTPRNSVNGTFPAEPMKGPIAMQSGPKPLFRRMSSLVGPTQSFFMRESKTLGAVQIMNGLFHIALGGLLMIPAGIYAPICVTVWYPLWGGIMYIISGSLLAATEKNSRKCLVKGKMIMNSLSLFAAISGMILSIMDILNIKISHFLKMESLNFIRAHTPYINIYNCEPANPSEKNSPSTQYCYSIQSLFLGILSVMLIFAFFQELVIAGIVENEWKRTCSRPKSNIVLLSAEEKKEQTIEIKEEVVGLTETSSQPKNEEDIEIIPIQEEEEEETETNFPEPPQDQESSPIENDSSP
Procedure: For the Wil2-S B-cell binding study, 100 ug/ml of PIMS was used. […] Binding was detected using a goat anti-human IgG (gamma specific) conjugated to phycoerythrin (PE) (Jackson Immunoresearch # 109-116-098) at 1:100 dilution in FACS buffer. Results were analyzed by one-color flow cytometry on a FACsCalibur using CellQuest software. In addition to assessing the binding of anti-CD20 PIMS to WIL2-S cells, the binding of anti-CD20 SMIPs to Wil2-S cells expressing CD20 on their surface was also assessed.

Sequence of low-affinity CD16 (CD16lo) (P08637 17-208): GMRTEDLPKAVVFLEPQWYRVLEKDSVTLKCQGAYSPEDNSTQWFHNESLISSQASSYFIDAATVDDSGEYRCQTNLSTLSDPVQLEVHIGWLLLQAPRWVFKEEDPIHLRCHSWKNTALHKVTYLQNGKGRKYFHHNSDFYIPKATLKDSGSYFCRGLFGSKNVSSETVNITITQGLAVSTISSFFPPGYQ

Geo MFI [1]: 228 | Geo MFI [2]: 158 | Geo MFI [3]: 57.5 | Geo MFI [4]: 143 | Geo MFI [5]: 214 | Geo MFI [6]: 229 | Geo MFI [7]: 7.41 | Geo MFI [8]: 21.8
Molecule: TRU-016 (an anti-CD37 SMIP) (Fc fusion)

binding result (CD20): binds
B1: 2Lm20-4HL12 (an HL anti-CD20 SMIP with a 12-amino-acid gly4ser linker) (Fc fusion)
chain: QVQLVQSGAESKKPGASVKVSCKASGYTFTSYNMHWVRQAPGQGLEWMGAIYPGNGDTSYNQKFKGRVTMTRDTSTSTVYMELSSLRSEDTAVYYCARSYYSNSYWYFDLWGRGTLVTVSSGGGGSGGGGSASEIVLTQSPATLSLSPGERATLSCRASSSVSYIVWYQQKPGQAPRLLIYAPSNLASGIPARFSGSGSGTDFTLTISSLEPEDFAVYYCQQWSFNPPTFGQGTKVEIK
notes: also called DNE078; not shown: The hinge and CH2CH3 of this SMIP are not specified

binding result (CD20): binds
B2: 2Lm20-4HL17 (an HL anti-CD20 SMIP with a 17-amino-acid gly4ser linker) (Fc fusion)
chain: QVQLVQSGAESKKPGASVKVSCKASGYTFTSYNMHWVRQAPGQGLEWMGAIYPGNGDTSYNQKFKGRVTMTRDTSTSTVYMELSSLRSEDTAVYYCARSYYSNSYWYFDLWGRGTLVTVSSGGGGSGGGGSGGGGSASEIVLTQSPATLSLSPGERATLSCRASSSVSYIVWYQQKPGQAPRLLIYAPSNLASGIPARFSGSGSGTDFTLTISSLEPEDFAVYYCQQWSFNPPTFGQGTKVEIK
notes: also called DNE079; not shown: The hinge and CH2CH3 of this SMIP are not specified
